Measured values taken from patent US20260125457A1 (Janssen / Centocor, published 2026).
Numbering of substitutions follows the chain as printed.

T1: 22 amino acid CALRmut-specific peptide (acetylation of the terminal amino-group; C-terminal -OH group)
T1 construct: also called 22aa CALRmut peptide; CALRmut target peptide
T1 peptide: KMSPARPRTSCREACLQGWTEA

T2: HIS-CALRdel52 (produced in E. coli)
T2 construct: also called recombinant CALRdel52 protein; CALRdel53 target protein
T2 chain: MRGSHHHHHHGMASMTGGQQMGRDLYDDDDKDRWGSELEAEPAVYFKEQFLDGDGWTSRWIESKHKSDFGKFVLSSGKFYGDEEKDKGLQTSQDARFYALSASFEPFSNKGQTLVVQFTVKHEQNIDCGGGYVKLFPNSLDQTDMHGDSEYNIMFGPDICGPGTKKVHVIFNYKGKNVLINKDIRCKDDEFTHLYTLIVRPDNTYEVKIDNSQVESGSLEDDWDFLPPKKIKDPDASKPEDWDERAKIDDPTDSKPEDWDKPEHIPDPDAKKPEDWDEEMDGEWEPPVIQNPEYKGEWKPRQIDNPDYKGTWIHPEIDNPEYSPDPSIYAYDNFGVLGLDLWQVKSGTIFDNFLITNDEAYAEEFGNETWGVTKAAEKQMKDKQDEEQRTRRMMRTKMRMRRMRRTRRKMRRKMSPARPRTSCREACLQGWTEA

T3: wild-type calreticulin (CALRwt) expressed with MPL in engineered cancer cells (UniProt P27797 18-417, limits assumed)
T3 construct: whole, on cells; also called OCI-M2 MPL CALRwt
T3 sequence (looked up): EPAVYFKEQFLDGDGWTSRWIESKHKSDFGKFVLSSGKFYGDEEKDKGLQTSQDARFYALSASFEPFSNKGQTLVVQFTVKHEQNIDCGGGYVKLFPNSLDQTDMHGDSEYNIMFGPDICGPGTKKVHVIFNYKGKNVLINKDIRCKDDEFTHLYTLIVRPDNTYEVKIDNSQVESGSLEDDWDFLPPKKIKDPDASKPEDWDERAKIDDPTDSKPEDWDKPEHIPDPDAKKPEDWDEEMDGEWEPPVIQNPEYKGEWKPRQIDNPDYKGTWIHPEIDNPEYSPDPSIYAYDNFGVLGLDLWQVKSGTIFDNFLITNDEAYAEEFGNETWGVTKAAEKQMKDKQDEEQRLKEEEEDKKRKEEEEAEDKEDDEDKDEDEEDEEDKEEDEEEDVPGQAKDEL

T4: CALRins5 (mutant calreticulin, 5 base pair insertion, Type 2) expressed with MPL on engineered cancer cells (UniProt P27797 18-417)
T4 construct: whole, on cells; On the cell surface in complex with MPL; also called OCI-M2 MPL CALRins5
T4 sequence (looked up): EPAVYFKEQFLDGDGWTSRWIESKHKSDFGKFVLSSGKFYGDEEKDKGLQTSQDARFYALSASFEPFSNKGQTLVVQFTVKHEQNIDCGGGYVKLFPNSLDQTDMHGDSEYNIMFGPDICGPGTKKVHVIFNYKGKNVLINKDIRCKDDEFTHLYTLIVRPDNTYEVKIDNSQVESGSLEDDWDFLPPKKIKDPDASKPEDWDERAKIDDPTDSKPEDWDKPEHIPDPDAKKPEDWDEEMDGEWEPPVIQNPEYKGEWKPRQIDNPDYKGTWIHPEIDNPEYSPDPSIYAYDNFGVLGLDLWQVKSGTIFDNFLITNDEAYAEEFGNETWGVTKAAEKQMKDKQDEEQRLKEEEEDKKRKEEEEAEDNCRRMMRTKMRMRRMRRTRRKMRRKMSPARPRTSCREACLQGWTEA

B1: Clone 1 (Fab, V domains shown)
VH: QEQLKESGGRLVTPGTPLTLTCAVSGFSLDIYGMSWVRQAPGKGLEWIGIIYIEGITYYANWAKGRFTISKTSSTTLELKMTSLTTEDTAMYFCVAGVGRIWGPGTLVTVSS
VL: YVMMTQTPSSVSAAVGGTVTINCQASQSLYNNNNLAWFQQKPGQPPKRLIYPASTLASGVSSRFKGSGSGTQFTLTISDVQRDDAATYFCLGEFSCSSADCYAFGGGTEVVVK
notes: Rabbit/human chimeric Fab (human CH1, CK) on phage; also soluble Fab-AP
B2: Clone 4 (Fab, V domains shown)
VH: QEQLEESGGRLVTPGTPLTLTCKVSGIDLSNNAISWVRQAPGKGLEYIGVIGNTGDTYYASWAKGRFTISKTSSTTVDLKMTSLTTEDTATYFCVRGPPSYSNSVKNIWGPGTLVTISS
VL: DPMLTQTPSSVSAAVGGTVTINCQSSQSVYNNNWLSWLQQKPGQPPNRLIYDASKLESGVPSRFSGSGSGTQFTLTISGVQRDDAATYYCAGGFTGNVYTFGGGTEVVVK
notes: as for B1
B3: Clone 16 (Fab, V domains shown)
VH: QEQLKESGGRLVTPGTPLTLTCTASGFSLSNYYMSWVRQAPGKGLEWIGGISSRAGTWYASWAKGRFTISGTSTTMDLKITSPTTEDTATYFCARGLKIWGPGTLVTVSS
VL: DPVLTQTESPVSAAVGGTVTINCQASQSVYDDNNLAWYQQKPGQPPKRLIYPASTLASGVSSRFSGSGSGSQFTLTISDVQCDDAATYYCQGEFSCTSADCVAFGGGTEVVVK
notes: as for B1
B4: C3CRB137 CALRmut x CD3 bispecific antibody (bispecific antibody, human IgG1, kappa, L234A L235A)
scFv: DIQMTQSPSSLSASVGDRVTITCRARQSIGTAIHWYQQKPGCAPKLLIKYASESISGVPSRFSGSGSGTDFTLTISSLQPEDFATYYCQQSGSWPYTFGQGTKLEIKGGGSGGSGGCPPCGGSGGEVQLVESGGGLVKPGGSLRLSCAASGFTFSRYNMNWVRQAPGKGLEWVSSISTSSNYIYYADSVKGRFTFSRDNAKNSLDLQMSGLRAEDTAIYYCTRGWGPFDYWGCGTLVTVSSEPKSSDKTHTCPPCPAPEAAGGPSVFLFPPKPKDTLMISRTPEVTCVVVSVSHEDPEVKFNWYVDGVEVHNAKTKPREEQYNSTYRVVSVLTVLHQDWLNGKEYKCKVSNKALPAPIEKTISKAKGQPREPQVYTLPPSREEMTKNQVSLWCLVKGFYPSDIAVEWESNGQPENNYKTTPPVLDSDGSFFLYSKLTVDKSRWQQGNVFSCSVMHEALHNHYTQKSLSLSPGK
heavy: EVQLLESGGGLVQPGGSLRLSCAVSGIDLSNNAISWVRQAPGKGLEYVGVIGNTGDTYYADSAKGRFTISRDSSKTTLYLQMNSLRAEDTAVYFCVRGPPSYSSSVKNIWGQGTLVTVSSASTKGPSVFPLAPSSKSTSGGTAALGCLVKDYFPEPVTVSWNSGALTSGVHTFPAVLQSSGLYSLSSVVTVPSSSLGTQTYICNVNHKPSNTKVDKKVEPKSCGGGGSGGGGSEVQLLESGGGLVQPGGSLRLSCAVSGIDLSNNAISWVRQAPGKGLEYVGVIGNTGDTYYADSAKGRFTISRDSSKTTLYLQMNSLRAEDTAVYFCVRGPPSYSSSVKNIWGQGTLVTVSSASTKGPSVFPLAPSSKSTSGGTAALGCLVKDYFPEPVTVSWNSGALTSGVHTFPAVLQSSGLYSLSSVVTVPSSSLGTQTYICNVNHKPSNTKVDKKVEPKSCDKTHTCPPCPAPEAAGGPSVFLFPPKPKDTLMISRTPEVTCVVVSVSHEDPEVKFNWYVDGVEVHNAKTKPREEQYNSTYRVVSVLTVLHQDWLNGKEYKCKVSNKALPAPIEKTISKAKGQPREPQVYTLPPSREEMTKNQVSLSCAVKGFYPSDIAVEWESNGQPENNYKTTPPVLDSDGSFFLVSKLTVDKSRWQQGNVFSCSVMHEALHNRFTQKSLSLSPGK
light: DIQMTQSPSSVSASVGDRVTITCQSSQSVYNNNWLSWLQQKPGKAPKRLIYDASKLESGVPSRFSGSGSGTDFTLTISSVQPEDAATYYCAGGFTGNVYTFGGGTKVEIKRTVAAPSVFIFPPSDEQLKSGTASVVCLLNNFYPREAKVQWKVDNALQSGNSQESVTEQDSKDSTYSLSSTLTLSKADYEKHKVYACEVTHQGLSSPVTKSFNRGEC
notes: Chain B heavy: two CALRB421 Fab heavy parts in tandem, Fc
B5: Clone 20 (Fab, V domains shown)
VH: QSLEESGGRLVTPGTPLTLTCTVSGIDLSNNAISWVRQAPGKGLEYIGVIGNTGDTYYASWAKGRFTISKTSSTTVDLKMTSLTTEDTATYFCVRGPPSYSNSVKNIWGPGTLVTISS
VL: DPMLTQTPSSVSAAVGGTVTIGCQSSQSVYDKNWLSWYQQKPGQPPSRLIYDASKLESGVPSRFSGSGSGTQFTLTISGVQCDDAATYYCAGGFTGNVYAFGGGTKLEIK
notes: as for B1
B6: Clone 17 (Fab, V domains shown)
VH: B2 VH with K23T, I34M, D56T, S61N, T75A, E87D, I117V
VL: B2 VL with P2V, N31D, N32K, N47S, R82C, E106K
notes: as for B1
B7: Clone 10 (Fab, V domains shown)
VH: B5 VH with L3V
VL: B5 VL with A85V, K106E, L107V, E108V, I109V
notes: as for B1
B8: Clone 2 (Fab, V domains shown)
VH: B5 VH with L3V, D55T, T85A, E86S, I116V
VL: B5 VL with S78G
notes: as for B1
B9: Clone 18 (Fab, V domains shown)
VH: QSVEESGGRLVTPGTPLTITCTVSGFSLSSYAMSWVRQAPGKGLEWIGVIDSGGTTYYATWAKSRFTISKTQTKVALKITSPTTEDTATYFCARESYAGYDGYGHPIPYGMDPWGPGTLVTVSS
VL: DVVMTQTPSSVSAAVGGTVTINCQASQSLYNNKNLAWYQQKPGQPPKLLIYYASALASGVSSRFKGSGSGTQFTLTISGVQCDDAATYYCQGEFNCNSADCNSFGGGTEVVVK
notes: as for B1

Legend:
[1] = biological target: T1, 22 amino acid CALRmut-specific peptide; test: phage ELISA; QC ELISA of soluble Fab-AP
[2] = biological target: T2, HIS-CALRdel52 (produced in E. coli); test: QC monoclonal phage ELISA
Excerpt: Next, recombinant CALRdel52 protein (SEQ ID NO: 5) and the 22 amino acid CALRmut peptide (SEQ ID NO: 1) were used for selecting specific binders from the immune rabbit/human Fab library prepared above. By DNA sequencing, 15 unique Fabs were identified and specific binding to the CALRmut target peptide was confirmed by phage ELISA and by QC ELISA after soluble expression of Fab-AP (Fab-conjugated to Alkaline Phosphatase).

[3] = biological target: T3, wild-type calreticulin (CALRwt) …; test: flow cytometry on OCI-M2 MPL CALRwt cells, 1 h at 37 C, AF647 secondary antibody, Geometric mean
Method: (§1) FIGS. 27A-27F depict binding of different CALRmutxCD3 antibodies to CALRmut-negative or CALRmut-positive cells. Flow cytometry was used to evaluate CALRmutxCD3 binding to CALRmut-negative and CALRmut-positive cancer cells in vitro. CALRmutxCD3 antibodies were tested on a panel of cell lines, engineered to express MPL and CALRmut, after 1 hour 37° C. incubation, with subsequent incubation with secondary AF647-labeled antibody. Geometric mean fluorescence intensity of AF647 was measured to determine antibody binding.

[4] = biological target: T4, CALRins5 (mutant calreticulin, 5 base …); test: flow cytometry on ELF-153 MPL CALRins5 cells, 1 h at 37 C, AF647 secondary antibody, Geometric mean
Method: as §1

Binder | binding result [1] | phage ELISA signal (Coating: CALR) [2] | binding result [3] | EC50 (read off the curve) [4] [nM]
B1 | binds | 2.92 |  | 
B2 | binds | 2.54 |  | 
B3 | binds | 2.94 |  | 
B4 |  |  | no binding (tested: 100 nM) | ~1
B5 | binds | 2.69 |  | 
B6 | binds | 2.23 |  | 
B7 | binds | 2.18 |  | 
B8 | binds | 2.87 |  | 
B9 | binds | 1.91 |  | 
